In patent US20240270814A1 (published 2024):
Numbering of substitutions follows the chain as printed.

T1: p53 Y220C peptide on HLA-DRB1*04:01 (human)
T1 peptide: RNTFRHSVVVPCE

T2: p53 wild type (Y220) peptide on HLA-DRB1*04:01 (human)
T2 peptide: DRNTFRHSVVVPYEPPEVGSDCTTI

T3: p53 R248W peptide on HLA-A*68:01 (human)
T3 peptide: SSCMGGMNWR

B1: 4259-F6-TCR (TCR, V domains shown)
Valpha: QKEVEQNSGPLSVPEGAIASLNCTYSDRGSQSFFWYRQYSGKSPELIMFIYSNGDKEDGRFTAQLNKASQYVSLLIRDSQPSDSATYLCAWNSGGSNYKLTFGKGTLLTVNP
Vbeta: NAGVTQTPKFRVLKTGQSMTLLCAQDMNHEYMYWYRQDPGMGLRLIHYSVGEGTTAKGEVPDGYNVSRLKKQNFLLGLESAAPSQTSVYFCASSYSQAWGQPQHFGDGTRLSIL
B2: 4266-TCR2 (TCR, V domains shown)
Valpha: GQNIDQPTEMTATEGAIVQINCTYQTSGFNGLFWYQQHAGEAPTFLSYNVLDGLEEKGRFSSFLSRSKGYSYLLLKELQMKDSASYLCAVYTGGFKTIFGAGTRLFVKA
Vbeta: EAGVAQSPRYKIIEKRQSVAFWCNPISGHATLYWYQQILGQGPKLLIQFQNNGVVDDSQLPKDRFSAERLKGVDSTLKIQPAKLEDSAVYLCASNLGGGSTDTQYFGPGTRLTVL
B3: 4266-TCR4 (TCR, V domains shown)
Valpha: GQNIDQPTEMTATEGAIVQINCTYQTSGFNGLFWYQQHAGEAPTFLSYNVLDGLEEKGRFSSFLSRSKGYSYLLLKELQMKDSASYLCAVYPGGSQGNLIFGKGTKLSVKP
Vbeta: B2 Vbeta with N95S, G98T
B4: 4266-TCR3 (TCR, V domains shown)
Valpha: B3 Valpha with V90F, P92Y
Vbeta: GAGVSQSPRYKVAKRGQDVALRCDPISGHVSLFWYQQALGQGPEFLTYFQNEAQLDKSGLPSDRFFAERPEGSVSTLKIQRTQQEDSAVYLCASSFGSGSTDTQYFGPGTRLTVL

Experiments:
Experiment in all cases: activation reporter or marker
[1] = target: T1, p53 Y220C peptide on HLA-DRB1*04:01
[2] = target: T2, p53 wild type (Y220) peptide on …
[3] = target: T3, p53 R248W peptide on HLA-A*68:01

Binder	binding result [1]	binding result [2]	binding result [3]
B1	recognises	no recognition	–
B2	–	–	recognises
B3	–	–	recognises
B4	–	–	recognises
